From FireProtDB (doi:10.1006/jmbi.1995.0616)

B1: Subtilisin-chymotrypsin inhibitor-2A, P01053 (parent)
chain: MSSVEKKPEGVNTGAGDRHNLKTEWPELVGKSVEEAKKVILQDKPEAQIIVLPVGTIVTMEYRIDRVRLFVDKLDNIAQVPRVG

Variants of: B1
Settings: Hordeum vulgare; pH 6.25; 25 °C; GdnHCl; Fluorescence; MES 50 mM; reversible: yes; structure 2CI2; whole UniProt chain shown

Row | Variant | ddG of mutation (higher = less stable) [kcal/mol] | denaturant m value [kcal/mol/M] | denaturant midpoint (higher = more stable) [M] | unfolding free energy [kcal/mol]
1 | F70L | 1.92 | 1.95 | 2.91 | 5.68
2 | F70V | 1.41 | 2.24 | 2.77 | 6.19
3 | F70A | 3.21 | 2.17 | 2.02 | 4.39
4 | P81A | 3.5 | 1.8 | 2.28 | 4.1
5 | R63A | 1.02 | 1.78 | 3.7 | 6.58
6 | K73N | 1.21 | 1.6 | 4 | 6.39
7 | E61A | 1.12 | 1.78 | 3.64 | 6.48
8 | D65A | 1.02 | 1.83 | 3.59 | 6.58
9 | P26A | – | 3.46 | 3.19 | –
10 | D72A | 3.14 | 1.99 | 2.24 | 4.46
11 | R63A D65A | 2.46 | 1.53 | 3.37 | 5.14
